The target of experiment [1] is T1, cynoG-CSFR-Fc: corresponding segment of cynomolgus monkey G-CSFR with an Fc sequence attached to its … (Macaca fascicularis, UniProt Q99062 25-335 (human entry)).
T1 construct: the Fc is not specified; also called cynomolgus monkey G-CSFR-Fc
T1 chain: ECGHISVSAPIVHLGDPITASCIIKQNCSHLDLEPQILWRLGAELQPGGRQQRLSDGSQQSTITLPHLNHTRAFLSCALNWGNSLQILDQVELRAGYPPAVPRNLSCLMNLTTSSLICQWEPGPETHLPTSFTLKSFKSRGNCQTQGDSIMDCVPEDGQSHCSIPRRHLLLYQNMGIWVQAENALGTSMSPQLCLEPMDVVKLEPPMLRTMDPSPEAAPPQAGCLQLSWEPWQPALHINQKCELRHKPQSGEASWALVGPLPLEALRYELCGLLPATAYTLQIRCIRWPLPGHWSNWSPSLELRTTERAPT
The experiment is described as follows: SPR (Biacore 2000), receptor immobilised on CM5 chip, IgG4 in solution. On the procedure:
(§1) Duplicate biosensor analysis of the antibodies c1.2 and 5D11 in IgG4 format were performed using a Biacore 2000 with a doubling dilution of the antibodies (312 nM to 2.4 nM in 0.1 mg/ml BSA) at a flow rate of 30 ul/min. Binding (100 μl) was monitored to respective flow cells containing control immobilized blank, immobilized cyno-G-CSFR-Fc, immobilized hG-CSFR-Fc and immobilized hG-CSFR. Receptor proteins (20 ug per ml in 20 mM Sodium Acetate pH 4.5) were previously immobilized to a CM5 chip using a NHS/EDC coupling kit as per the manufacturer's instructions (Biacore GE, Sweden). Target immobilization values were set at 700, 700 and 500 resonance units for cyno-G-CSFR-Fc, hG-CSFR-Fc and hG-CSFR, respectively. Chip immobilization was quenched with 50 mM ethanolamine pH 8.0. Dissociation of surface binding was monitored for 1000 seconds prior to desorption of the remaining complex using 50 mM Phosphoric acid. Reference binding was then subtracted from the control channel and kinetics generated using biaevaluation software on the Biacore 2000.
(SPR reads the build-up and loss of mass on a sensor chip optically.)

In experiment [2] the target is T2, soluble hG-CSFR: amino acids 25-335 of Homo sapiens G-CSFR with mutations C78A, C163S and C228S and a … (Homo sapiens, UniProt Q99062 25-335).
T2 chain: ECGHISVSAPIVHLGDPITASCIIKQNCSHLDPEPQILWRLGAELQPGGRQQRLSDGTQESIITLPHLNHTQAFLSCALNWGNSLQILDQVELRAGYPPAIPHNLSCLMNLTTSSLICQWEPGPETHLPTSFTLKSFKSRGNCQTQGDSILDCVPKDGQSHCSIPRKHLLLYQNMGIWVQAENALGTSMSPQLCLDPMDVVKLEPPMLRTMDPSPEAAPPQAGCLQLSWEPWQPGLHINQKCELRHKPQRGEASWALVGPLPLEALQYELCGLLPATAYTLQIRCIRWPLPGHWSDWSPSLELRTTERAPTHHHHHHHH
The description is as above. As for the experimental part: as §1

The target in experiment [3] is T3, hG-CSFR-Fc: polypeptide of SEQ ID NO: 1 in which the C-terminal polyhistidine tag is replaced with an Fc … (Homo sapiens, UniProt Q99062 25-335).
T3 construct: the Fc is not specified; also called human G-CSFR-Fc; hG-CSFR-Fc fusion
T3 chain: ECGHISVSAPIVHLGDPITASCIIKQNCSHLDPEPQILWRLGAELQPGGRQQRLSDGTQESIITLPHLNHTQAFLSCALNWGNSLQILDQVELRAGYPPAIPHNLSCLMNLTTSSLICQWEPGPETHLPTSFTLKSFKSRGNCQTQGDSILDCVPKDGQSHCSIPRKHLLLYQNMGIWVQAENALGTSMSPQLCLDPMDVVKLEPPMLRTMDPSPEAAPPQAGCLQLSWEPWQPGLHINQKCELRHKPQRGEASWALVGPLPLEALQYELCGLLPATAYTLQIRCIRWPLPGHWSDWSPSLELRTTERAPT
The description is as above. On the procedure: as §1

In experiment [4] the target is T4, human G-CSFR expressed on cells (Homo sapiens, UniProt Q99062 25-836).
T4 sequence: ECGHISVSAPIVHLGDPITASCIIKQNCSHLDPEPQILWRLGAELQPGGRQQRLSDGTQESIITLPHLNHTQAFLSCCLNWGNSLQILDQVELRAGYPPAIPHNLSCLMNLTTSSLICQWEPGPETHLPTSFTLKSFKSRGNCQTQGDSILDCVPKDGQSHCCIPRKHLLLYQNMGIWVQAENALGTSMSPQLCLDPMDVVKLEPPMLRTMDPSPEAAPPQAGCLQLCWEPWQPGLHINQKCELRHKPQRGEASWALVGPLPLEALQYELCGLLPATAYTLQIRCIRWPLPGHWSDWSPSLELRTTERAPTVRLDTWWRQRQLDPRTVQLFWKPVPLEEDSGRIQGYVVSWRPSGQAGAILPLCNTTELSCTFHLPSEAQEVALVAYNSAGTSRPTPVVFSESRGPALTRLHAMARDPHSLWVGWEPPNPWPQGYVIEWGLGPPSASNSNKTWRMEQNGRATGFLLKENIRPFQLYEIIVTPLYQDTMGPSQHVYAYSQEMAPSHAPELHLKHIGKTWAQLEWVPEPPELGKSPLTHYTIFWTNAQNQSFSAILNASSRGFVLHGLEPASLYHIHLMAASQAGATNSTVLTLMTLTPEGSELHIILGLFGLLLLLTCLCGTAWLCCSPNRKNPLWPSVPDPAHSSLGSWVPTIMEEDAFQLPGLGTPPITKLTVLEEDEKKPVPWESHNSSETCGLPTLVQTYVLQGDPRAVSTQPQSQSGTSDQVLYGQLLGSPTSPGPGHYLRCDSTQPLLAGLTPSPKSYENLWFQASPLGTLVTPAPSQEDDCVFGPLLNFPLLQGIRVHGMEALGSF
The experiment is described as follows: cell-based or functional assay.

For experiment [5], the target named is T1, cynoG-CSFR-Fc: corresponding segment of …. As to the kind of experiment: SPR (Biacore 2000), receptor immobilised on CM5 chip, Fab in solution. On the procedure:
(§2) Duplicate biosensor analysis of the Fab were performed using a Biacore 2000 (GE, Sweden) with a doubling dilution of Fab antibodies (100 nM to 0.39 nM in 0.1 mg/ml BSA) at a flow rate of 30 μl/min. Binding (100 μl) was monitored to respective flow cells containing control immobilised blank, immobilized cyno G-CSFR-Fc, immobilized human G-CSFR-Fc and immobilized human G-CSFR. Receptor proteins (20 μg per ml in 20 mM Sodium Acetate pH 4.5) were previously immobilized to a CM5 chip using a NHS/EDC coupling kit as per the manufacturer's instructions (Biacore GE, Sweden). Target immobilization values were set at 700, 700 and 500 resonance units for cyno G-CSFR-Fc, hG-CSFR-Fc and hG-CSFR, respectively. Chip immobilisation was quenched with 50 mM ethanolamine pH 8.0. Dissociation of surface binding was monitored for 1000 seconds prior to desorption of the remaining complex using 50 mM Phosphoric acid. Reference binding was then subtracted from the control channel and kinetics generated using biaevaluation software on the Biacore 2000.

For experiment [6], the target named is T2, soluble hG-CSFR: amino acids 25-335 of …. The experiment is described as above. On the procedure: as §2
Experiment [7] deals with T3, hG-CSFR-Fc: polypeptide of SEQ ID NO: 1 …. The description is as above. On the procedure: as §2
Experiment [8] concerns the target T4, human G-CSFR expressed on cells. As to the kind of experiment: cell-based or functional assay. This is another data set of the same source.
The target is the same in experiment [9]. The experiment is described as follows: binding to BaF3 cells expressing hG-CSFR; method not described; hG-CSFR on the cell surface of BaF3 cells.
Experiment [10] has as its target T5, wild type hG-CSFR (soluble, corresponding extracellular domains of the wild type receptor) (Homo sapiens, UniProt Q99062 25-335).
T5 construct: also called wt hG-CSFR
T5 sequence: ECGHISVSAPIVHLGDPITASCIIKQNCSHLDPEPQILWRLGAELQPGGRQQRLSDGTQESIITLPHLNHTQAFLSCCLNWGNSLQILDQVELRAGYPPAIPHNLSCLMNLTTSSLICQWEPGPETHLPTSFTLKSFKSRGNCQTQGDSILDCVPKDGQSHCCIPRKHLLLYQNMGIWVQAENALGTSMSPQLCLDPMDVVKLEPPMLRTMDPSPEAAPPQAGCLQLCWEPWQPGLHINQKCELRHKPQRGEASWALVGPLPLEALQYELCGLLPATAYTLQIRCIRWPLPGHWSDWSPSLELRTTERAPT
As to the kind of experiment: SPR (Biacore), mAb captured by anti-Fc, soluble wild type receptor injected.

B1: C1.2 IgG4 antibody (antibody, V domains shown)
VH: EVQLLESGGGLVQPGGSLRLSCAASGFTFSLYWMGWVRQAPGKGLEWVSSISSSGGVTPYADSVKGRFTISRDNSKNTLYLQMNSLRAEDTAVYYCAMLGELGWFDPWGQGTLVTVSS
VL: DIQMTQSPSALSASVGDRVTITCRASQGISSYLNWYQQKPGKAPKLLIYYASNLQNGIPSRFSGSGSGTDFTLTISSLQPEDFATYHCQQSYSTPLTFGGGTNVEIR
notes: human IgG4 format; also called C1.2 Ab
What is called Kd is the constant that tells how readily two partners part at equilibrium. With B1, the Kd in experiment [1] turned out to be 0.054 nM; in experiment [2], 0.027 nM; in experiment [3], 0.077 nM. Also, the “IC50, inhibition of CFU-G formation by CD34+ bone marrow cells in the presence of G-CSF” value in experiment [4] turned out to be 0.016 nM. Further, in experiment [4], the “IC50, inhibition of G-CSF-mediated proliferation of BaF3 cells expressing hG-CSFR” value came out at 0.5 nM.

B2: C1.2 Fab (Fab, V domains shown)
VH: EVQLLESGGGLVQPGGSLRLSCAASGFTFSLYWMGWVRQAPGKGLEWVSSISSSGGVTPYADSVKGRFTISRDNSKNTLYLQMNSLRAEDTAVYYCAMLGELGWFDPWGQGTLVTVSS
VL: DIQMTQSPSALSASVGDRVTITCRASQGISSYLNWYQQKPGKAPKLLIYYASNLQNGIPSRFSGSGSGTDFTLTISSLQPEDFATYHCQQSYSTPLTFGGGTNVEIR
notes: human Fab (papain digest of the antibody or E. coli expression); also called Fab C1.2
Turning to B2, the dissociation constant (Kd) in experiment [5] stood at 0.39 nM; in experiment [6], 0.37 nM; in [7] it was 0.33 nM.

B3: C1.2G (germlined C1.2), human IgG4 (antibody, V domains shown)
VH: EVQLLESGGGLVQPGGSLRLSCAASGFTFSLYWMGWVRQAPGKGLEWVSSISSSGGVTPYADSVKGRFTISRDNSKNTLYLQMNSLRAEDTAVYYCAKLGELGWFDPWGQGTLVTVSS
VL: DIQMTQSPSSLSASVGDRVTITCRASQGISSYLNWYQQKPGKAPKLLIYYASNLQNGVPSRFSGSGSGTDFTLTISSLQPEDFATYYCQQSYSTPLTFGGGTKVEIK
notes: Human IgG4/kappa; also called C1.2 germline mAb; C1.2G (human IgG4)
For B3, the “IC50 (nM), inhibition of G-CSF-mediated proliferation of BaF3 cells” value in [8] was found to be 0.32 nM. For the same molecule, the “IC50, inhibition of G-CSF-mediated proliferation of BaF3 cells expressing hG-CSFR (3H-thymidine incorporation)” value in [4] was determined as 0.8 µg/mL. Moreover, the Kd in [9] was determined as 0.257 nM; in experiment [10], 1.4 nM.

(Values after patent publication US20160031998A1 (CSL, published 2016).)
